In patent US20220412989A1, “COMPOSITIONS AND METHODS FOR DETECTING CELLS UNDERGOING FERROPTOSIS USING AN ANTIBODY” (THE TRUSTEES OF COLUMBIA UNIVERSITY IN THE CITY OF NEW YORK, priority 2020, published 2022):

Assays:
[1] = test system: HT-1080 cells; experiment: Immunofluorescence staining of cells treated with cell death inducers, membrane intensity; assay type: cell-based, human
Description: HT-1080 (ATCC Cat #CRL-7951, RRID:CVCL_0317), A-673, SK-BR-3, SK-LMS-1 and Huh-7 cells were treated with 1 μM RSL3 for 4 h, 15 μM erastin for 8 h, 10 μM IKE for 8 h, 15 μM FINO2 for 8 h, 10 μM FIN56 for 8 h, 100 μM tBuOOH for 8 h, 1 μM staurosporine (STS) for 6 h, 2 μM camptothecin (CPT) for 24 h, 1 μM RSL3+5 μM Fer-1 for 4 h and 10 μM IKE+5 μM Fer-1 for 8 h on poly-lysine-coated cover slips (Sigma Aldrich P4832) in 24-well plate. Media were taken out and the cells were gently washed with PBS^++ (PBS with 1 mM CaCl2) and 0.5 mM MgCl2) twice. The cells were fixed and permeabilized by adding 200 μL/well of 4% paraformaldehyde (PFA) in PBS with 0.1% Triton X-100 (PBT), and incubated at room temperature for 18 min. The cells were then washed with PBT three times. Then the cells were blocked with 5% goat serum (ThermoFisher 50197Z) in PBT for 1 h at room temperature. The cells were incubated with purified mouse monoclonal antibodies (1:5 dilution), mouse mAb 3F3 FMA (1:500 dilution), Transferrin Receptor/CD71 Monoclonal Antibody, Clone: H68.4, Invitrogen (Thermo Fisher Scientific Cat #13-6800, RRID:AB_2533029, 1:250 dilution), Cd71 (D7G9X) XP® Rabbit mAb (Cell Signaling Technology Cat #13113, RRID:AB_2715594, 1:100 dilution), CD71 (3B8 2A1) (Santa Cruz Biotechnology Cat #sc-32272, RRID:AB_627167, 1:50 dilution), Tom20 (FL-145) (Santa Cruz Biotechnology Cat #sc-11415, RRID:AB_2207533, 1:250 dilution), PDI antibody [RL90]—ER Marker (Abcam Cat #ab2792, RRID:AB_303304, 1:100 dilution), Gm130 (D6B1) XP® Rabbit mAb (Cell Signaling Technology Cat #12480, RRID:AB_2797933, 1:3200 dilution), Anti-Malondialdehyde antibody (Abcam Cat #ab6463, RRID:AB_305484, 1:400 dilution), Anti-4 Hydroxynonenal antibody (Abcam Cat #ab46544, RRID:AB_722493, 1:50 dilution), ACSL4 Antibody (F-4) (Santa Cruz Biotechnology Cat #sc-365230, RRID:AB_10843105, 1:50 dilution), mouse mAb 1F83 (1:100 dilution), which specifically recognizes the malondialdehyde (MDA)-lysine adduct 4-methyl-1,4-dihydropyridine-3,5-dicarbaldehyde (MDHDC) (Yamada et al., 2001), in PBT with 1% BSA and 5% goat serum overnight at 4° C. The cells were washed with PBT for 5 min three times. The cells were incubated with Goat anti-Mouse IgG (H+L) Highly Cross-Adsorbed Secondary Antibody, Alexa Fluor 594 (Thermo Fisher Scientific Cat #A-11032, RRID:AB_2534091, 1:200 dilution) or Goat anti-Rabbit IgG (H+L) Highly Cross-Adsorbed Secondary Antibody, Alexa Fluor 488 (Thermo Fisher Scientific Cat #A-11034, RRID:AB_2576217, 1:200 dilution) at room temperature for 1 h. The cells were washed with PBT for 5 min three times. ProLong Diamond antifade mountant with DAPI (ThermoFisher P36962) was added to stain the nucleus. All images were captured on a Zeiss LSM 800 confocal microscope at Plan-Apochromat 63x/1.40 Oil DIC objective with constant laser intensity for all samples. When applicable, line-scan analysis was performed on representative confocal microscopy images using Zeiss LSM software to qualitatively visualize fluorescence overlap.
The quantification of the intensity of antibodies was analyzed using CellProfiler 3.1.8 (Carpenter et al., 2006) (CellProfiler Image Analysis Software, RRID:SCR_007358). Nuclei were firstly identified as primary objects using global minimum cross entropy strategy. […] Then mean intensities and size areas of nuclei, cytoplasm and plasma membranes were then measured and reported. […]

[2] = test system: TfR1 protein in HT-1080 cells; experiment: Western blot of TfR1 during ferroptosis; assay type: cell-based, human; conditions: RSL3-induced and IKE-induced ferroptosis
Description: HT-1080 cells were seeded in DMEM (Corning 10-013-CM) and 10% Hi-FBS with 1% penicillin and streptomycin (PS) with 1% MEM Non-Essential Amino Acids Solution (100×) (Thermo Fisher Scientific 11140-076) 16 h prior to use. DMSO or 1 μM of RSL3 was added and incubated for 4 h. Following treatment, the medium was aspirated from each dish and cells were washed twice with PBS. Cells were lysed with 70 μl lysis buffer (RIPA buffer from ThermoFisher, cat. 89900, 1 mM EDTA, 1 mM PMSF, 1× Halt™ protease inhibitor cocktail from ThermoFisher, cat. 78430 and 1× Halt™ phosphatase inhibitor cocktail from ThermoFisher, cat. 78426). Unlysed cells and debris were pelleted for 15 min at 16,000×g at 4° C. Samples were separated using SDS-PAGE and transferred to a polyvinylidene difluoride membrane. Transfer was performed using the iBlot2 system (Invitrogen). […]

B1: 3F3-FMA: murine monoclonal IgG1 raised against ferroptotic membrane fractions; antigen is human transferrin receptor protein 1 (TfR1) (antibody, V domains shown)
VH: EVLLQQSGTELVRPGALVKLSCKASGFNIQDLYIHWVKQRPEQGLEWIGWIDPETDNTIYDPKFQGKASITADTSSNTAYLQLSSLTSEDTAMYYCSTGLLQWYFDVWGAGTAVTVSS
VL: DIVMTQSPSSLAMSIGQKVTMRCKSSQSLLNSYNQKNCLAWYQQKPGQSPKLLLYFVSTRESGVPDRFIGSGSGTDFTLTISSVQAEDLADYFCQQHYSTPLTFGAGTKLELK
With B1 the “staining / membrane intensity in RSL3-induced ferroptosis” value ([1]; 1 μM RSL3, 4 h vs DMSO) was “stained cell boundaries and the inside puncta became brighter”, the “cell surface / membrane staining in STS-induced apoptosis” value ([1]; 1 μM staurosporine, 6 h) was “wasn't detected” and the “cell surface / membrane intensity in camptothecin-induced apoptosis” value ([1]; 2 μM camptothecin, 24 h) was “no significant increase”. For the same molecule, the “membrane intensities in H2O2-treated cells” value ([1]; 1 mM H2O2, 4 h) was “didn't observe increased membrane intensities”, the “staining pattern with other ferroptosis inducers” value ([1]; IKE, erastin, FIN56, FINO2 and tBuOOH, 8 h) was “the same changes of 3F3-FMA pattern were observed” and the “intensity of the bands in western blotting” value [2] was “increased intensity of the bands”.
